Test results from publication PMC4876229.

Tests used:
[1] = molecular target: human recombinant plasminogen activator inhibitor‐1 (stable PAI‐1 variant 14‐1B) (human) (UniProt P05121)
[2] = molecular target: human recombinant plasminogen activator inhibitor‐1 (stable PAI‐1 variant 14‐1B) (human) (UniProt P05121); assay: SPR; anti‐PAI‐1 monoclonal antibody (Mab‐1) immobilised on a CM5 Biacore chip, PAI‐1 captured on it, uPA‐S195A variants applied from 25 nM to 48.8 pM; global fit to a 1:1 binding model; repeated three times
[3] = molecular target: human recombinant plasminogen activator inhibitor‐1 (stable PAI‐1 variant 14‐1B) (human) (UniProt P05121); remark: listed apart in the source
[4] = molecular target: human recombinant plasminogen activator inhibitor‐1 (stable PAI‐1 variant 14‐1B) (human) (UniProt P05121); remark: listed apart in the source
murine PAI‐1 (murine) = murine PAI‐1 (murine) (UniProt P22777)
[5] = molecular target: endogenous plasma PAI‐1 (human (endogenous in plasma)) (UniProt P05121)
[6] = molecular target: recombinant human plasminogen activator inhibitor‐2 (human) (UniProt P05120)
PN‐1 (human) = PN‐1 (human) (UniProt P07093)
[7] = molecular target: human antithrombin‐III (human) (UniProt P01008)
[8] = molecular target: human α2‐antiplasmin (human) (UniProt P08697)
[9] = molecular target: human recombinant plasminogen activator inhibitor‐1 (stable PAI‐1 variant 14‐1B) (human) (UniProt P05121); remark: listed apart in the source

Substance | IC50, chromogenic assay: recovery of uPA activity (S‐2444 hydrolysis) from inhibition by PAI‐1 (15 nM PAI‐1, 15 nM human uPA); blocks PAI‐1 + uPA [1] [nM] | Kd [2] [nM] | koff [2] [s⁻¹] | kon [2] [M⁻¹ s⁻¹] | also measured
uPA‐SPD S195A‐C122A‐N145Q‐G37bR‐Y60bK‐R217L (domain or fragment) | 26 | – | – | – | –
uPA‐SPD S195A‐C122A‐N145Q‐Q192K (domain or fragment) | 3000 | – | – | – | –
uPA‐SPD S195A‐C122A‐N145Q‐R217L (domain or fragment) | 48 | 0.63 | 0.00084 | 1.33e+06 | –
PAItrap (uPA‐S195A‐G37bR‐R217L‐C122A‐N145Q) (domain or fragment) | 10 | 0.15 | 0.000627 | 4.11e+06 | clot lysis time in human platelet‐poor plasma: 2.4 nM tPA, 0.9 nM PAI‐1, 6.5 nM PAItrap; blocks PAI‐1 + tPA [3]: 6 min; IC50 of blocking PAI‐1 inhibition on tPA (Fig. S1); blocks PAI‐1 + tPA [4]: 14 nM; IC50, chromogenic assay similar to that used for human PAI‐1; inhibition of murine PAI‐1 (murine PAI‐1 (murine)): 14 nM; time to 50% clot lysis in platelet‐free plasma without exogenous PAI‐1: 100 pM tPA, 20 or 200 nM PAItrap (96 min without PAItrap); blocks PAI‐1 + tPA [5]: 68 min; IC50, chromogenic assay: recovery of uPA activity (S2444) from inhibition by 15 nM PAI‐2, 15 nM uPA, 37°C; blocks PAI‐2 + uPA [6]: 14 µM; IC50, chromogenic assay: recovery of uPA activity (S2444) from inhibition by 15 nM PN‐1, 15 nM uPA, 37°C; blocks PN‐1 + uPA (PN‐1 (human)): 16 µM; IC50, chromogenic assay: remaining thrombin activity (Gly‐Arg‐p‐nitroanilide) with 30 nM antithrombin‐III and 30 nM human α‐thrombin, 37°C; blocks antithrombin‐III + α‐thrombin [7]: 40 µM; IC50, chromogenic assay: plasmin activity (Gly‐Arg‐p‐nitroanilide) with 15 nM α2‐antiplasmin and 15 nM human plasmin; blocks α2‐antiplasmin + plasmin [8]: > 50 µM
uPA‐SPD S195A‐C122A‐N145Q‐G37bR‐R217L‐A96E (domain or fragment) | 30 | – | – | – | –
uPA‐SPD S195A‐C122A‐N145Q‐Y149R (domain or fragment) | > 3000 | – | – | – | –
uPA‐SPD S195A‐C122A‐N145Q (domain or fragment) | 109 | 1.57 | 0.00121 | 776000 | clot lysis time in human platelet‐poor plasma: 2.4 nM tPA, 0.9 nM PAI‐1, 6.5 nM uPA‐S195A; blocks PAI‐1 + tPA [9]: 39 min
uPA‐SPD S195A‐C122A‐N145Q‐G37bR‐Y60bK (domain or fragment) | 90 | 0.83 | 0.00114 | 2.35e+06 | –
uPA‐SPD S195A‐C122A‐N145Q‐Y151F (domain or fragment) | 1000 | – | – | – | –
uPA‐SPD S195A‐C122A‐N145Q‐G37bR (domain or fragment) | 25 | 0.32 | 0.000698 | 2.3e+06 | –
uPA‐SPD S195A‐C122A‐N145Q‐A96E (domain or fragment) | 22 | – | – | – | –
